Target: pstp_myctu pstP (UniProt P9WHW5)

## ECF RNA polymerase sigma factor SigH (Mycobacterium tuberculosis (strain ATCC 25618 / H37Rv)), P9WGH9 T26A;T106A
  effect of a mutation on the interaction: disrupting interaction
